For one molecule, reduction of cell growth, H322M spheroids, 7 days, 100 nM, Celltiter Glow results are on record in patent US20100256338A1.

For the experiment, the target named is EGFR on cells (H322M) (human), P00533. Nature of the experiment: cell-based or functional assay.

B1: humanized <EGFR>ICR62 (antibody, V domains shown)
VH: QVQLVQSGAEVKKPGSSVKVSCKASGFTFTDYKIHWVRQAPGQGLEWMGYFNPNSGYSTYAQKFQGRVTITADKSTSTAYMELSSLRSEDTAVYYCARLSPGGYYVMDAWGQGTTVTVSS
VL: DIQMTQSPSSLSASVGDRVTITCRASQGINNYLNWYQQKPGKAPKRLIYNTNNLQTGVPSRFSGSGSGTEFTLTISSLQPEDFATYYCLQHNSFPTFGQGTKLEIKRT
In turn, B1 returned a reduction of cell growth, H322M spheroids, 7 days, 100 nM, Celltiter Glow of 77%.
